For orientation: stoichiometry N means a count of units in the complex or per binding partner.

This assay addresses T1, Rec27 (untagged, His6-SUMO tag removed by Ulp1) (S. pombe, UniProt Q9USR4 1-125).
T1 sequence (looked up): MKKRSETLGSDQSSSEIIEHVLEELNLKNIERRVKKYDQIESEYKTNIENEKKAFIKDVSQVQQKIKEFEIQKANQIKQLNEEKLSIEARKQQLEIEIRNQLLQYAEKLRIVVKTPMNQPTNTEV
Kind of assay: mass photometry.

B1: Mug20 (untagged) (natural protein, S. pombe, UniProt Q9HGN4 1-151, looked up)
chain: MSEIITSLQTELSNRHANMVSEAVLAFSEHHDSALHSYFLNARVKDVILESLRTTEEKLRALDKLQLDASKNLSNLLVEYNSINAELESVNSKISSISSQEYALEEFQALSQNFEKNLVQHRRNSQNKLKCAMEKLKMIETSTHKAILDNF
For B1, the “stoichiometry N” value was determined as 1.

B2: Rec25 (untagged) (natural protein, S. pombe, UniProt Q9C115 1-150, looked up)
chain: MVKGSVTNTSSIVKQFEKSSIKHETETIAFAKQFINECIREFQEQKDNVVEEKNTDQNHQNQNQEGVIIEIYQELLQKVDLISSELRQNLSSLQLRFQEVERDTGHDLLNVLNSLSQEARLAQKVLEEDGSQQGSQLIQGLLTCFQSTGN
For B2, the “stoichiometry N” value turned out to be 1.
